How the values were obtained:
Cdc13 [1] = target: T1, Cdc13 (Saccharomyces cerevisiae, UniProt P32797 1-924); test: EMSA
T1 sequence: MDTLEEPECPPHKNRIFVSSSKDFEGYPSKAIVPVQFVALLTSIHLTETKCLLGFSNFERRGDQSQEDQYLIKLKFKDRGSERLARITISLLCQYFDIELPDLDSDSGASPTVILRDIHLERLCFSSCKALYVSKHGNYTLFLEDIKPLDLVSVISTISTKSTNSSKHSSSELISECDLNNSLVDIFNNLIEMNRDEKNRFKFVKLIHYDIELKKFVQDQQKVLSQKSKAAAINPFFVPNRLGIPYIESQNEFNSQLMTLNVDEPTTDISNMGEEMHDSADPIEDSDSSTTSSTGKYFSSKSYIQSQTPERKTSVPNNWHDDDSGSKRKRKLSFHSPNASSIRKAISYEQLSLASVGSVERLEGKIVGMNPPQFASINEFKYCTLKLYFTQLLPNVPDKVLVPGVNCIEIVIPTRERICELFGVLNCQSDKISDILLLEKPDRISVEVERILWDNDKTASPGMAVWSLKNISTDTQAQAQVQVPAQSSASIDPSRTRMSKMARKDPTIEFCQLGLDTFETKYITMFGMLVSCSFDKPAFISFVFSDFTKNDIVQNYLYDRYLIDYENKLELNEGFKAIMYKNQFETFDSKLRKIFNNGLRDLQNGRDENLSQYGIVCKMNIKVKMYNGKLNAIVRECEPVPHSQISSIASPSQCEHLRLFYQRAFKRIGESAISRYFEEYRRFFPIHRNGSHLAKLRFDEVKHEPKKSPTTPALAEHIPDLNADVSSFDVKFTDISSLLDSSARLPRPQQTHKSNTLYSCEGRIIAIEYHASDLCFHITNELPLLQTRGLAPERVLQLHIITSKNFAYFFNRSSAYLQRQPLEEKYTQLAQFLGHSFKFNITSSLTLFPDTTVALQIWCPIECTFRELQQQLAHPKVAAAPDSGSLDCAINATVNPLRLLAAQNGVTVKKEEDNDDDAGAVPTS

Cdc13-L91R = target: T2, Cdc13-L91R (Saccharomyces cerevisiae, UniProt P32797 1-924, L91R); test: filter binding
T2 sequence: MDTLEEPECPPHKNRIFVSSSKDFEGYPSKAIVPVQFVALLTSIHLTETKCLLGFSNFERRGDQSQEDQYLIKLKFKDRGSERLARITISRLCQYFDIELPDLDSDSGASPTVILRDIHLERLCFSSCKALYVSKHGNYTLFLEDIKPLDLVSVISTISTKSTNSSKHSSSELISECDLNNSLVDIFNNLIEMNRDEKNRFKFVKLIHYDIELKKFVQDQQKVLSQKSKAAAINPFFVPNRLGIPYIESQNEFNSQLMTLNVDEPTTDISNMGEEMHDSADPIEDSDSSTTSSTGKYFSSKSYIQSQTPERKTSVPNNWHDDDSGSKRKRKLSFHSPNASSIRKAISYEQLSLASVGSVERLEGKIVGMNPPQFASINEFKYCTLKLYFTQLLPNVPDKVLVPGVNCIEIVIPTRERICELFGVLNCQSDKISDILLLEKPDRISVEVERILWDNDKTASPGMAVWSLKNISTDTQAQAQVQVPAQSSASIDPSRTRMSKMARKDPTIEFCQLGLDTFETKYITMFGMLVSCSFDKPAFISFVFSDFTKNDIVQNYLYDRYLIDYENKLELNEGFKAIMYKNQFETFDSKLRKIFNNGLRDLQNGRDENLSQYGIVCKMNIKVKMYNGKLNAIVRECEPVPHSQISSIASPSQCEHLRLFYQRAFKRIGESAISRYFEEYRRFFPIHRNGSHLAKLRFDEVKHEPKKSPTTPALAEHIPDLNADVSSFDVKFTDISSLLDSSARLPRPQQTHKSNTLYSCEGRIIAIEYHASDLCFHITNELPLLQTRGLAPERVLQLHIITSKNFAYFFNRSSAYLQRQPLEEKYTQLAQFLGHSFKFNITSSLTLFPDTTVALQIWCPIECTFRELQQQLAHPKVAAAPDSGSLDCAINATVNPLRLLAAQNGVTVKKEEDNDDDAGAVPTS

Cdc13 [2] = target: T1, Cdc13; test: filter binding
Cdc13-MOB-DBD = target: T3, Cdc13-MOB-DBD (Saccharomyces cerevisiae, UniProt P32797 344-694); test: filter binding
T3 sequence: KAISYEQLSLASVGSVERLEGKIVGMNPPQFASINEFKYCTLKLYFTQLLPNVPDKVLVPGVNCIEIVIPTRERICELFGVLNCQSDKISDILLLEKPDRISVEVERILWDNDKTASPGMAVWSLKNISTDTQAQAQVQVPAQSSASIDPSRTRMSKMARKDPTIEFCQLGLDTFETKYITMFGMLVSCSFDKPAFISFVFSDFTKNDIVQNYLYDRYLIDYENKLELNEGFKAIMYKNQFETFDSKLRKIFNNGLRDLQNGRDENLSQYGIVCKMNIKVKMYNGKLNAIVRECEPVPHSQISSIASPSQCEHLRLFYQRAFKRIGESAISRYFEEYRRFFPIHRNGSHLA

## GTGTGGGTGTG (ssDNA) [Tel11]
Cdc13 [1]
  Kd: 0.0134 ± 0.0004 nM
Cdc13-L91R
  Kd: 0.22 ± 0.05 nM
Cdc13 [2]
  Kd: 0.41 ± 0.04 nM
Cdc13-MOB-DBD
  Kd: 0.18 ± 0.03 nM

— article PMC3874162 (Nucleic Acids Research, 2013)
